Experimental data taken from patent CN1660912A.

What was measured:
[1] = target: 白细胞介素-8(IL-8), E.Coli表达的基因重组人体单核细胞来源的IL-8, 72个氨基酸 (human) (UniProt P10145); assay: ELISA, plate coated with 1ug/ml IL-8, antibody 3 ng/ml, replicate 2
[2] = target: 白细胞介素-8(IL-8), E.Coli表达的基因重组人体单核细胞来源的IL-8, 72个氨基酸 (human) (UniProt P10145); assay: ELISA, plate coated with 1ug/ml IL-8, antibody 30 ng/ml, replicate 1
[3] = target: TGF-β; assay: ELISA, cross-reaction (Table 1)
[4] = target: 白细胞介素-8(IL-8), E.Coli表达的基因重组人体单核细胞来源的IL-8, 72个氨基酸 (human) (UniProt P10145); assay: ELISA, cross-reaction (Table 1)
[5] = target: IL-16 (UniProt Q14005); assay: ELISA, cross-reaction (Table 1)
Sequence of UniProt Q14005 (Q14005 1212-1332 limits assumed): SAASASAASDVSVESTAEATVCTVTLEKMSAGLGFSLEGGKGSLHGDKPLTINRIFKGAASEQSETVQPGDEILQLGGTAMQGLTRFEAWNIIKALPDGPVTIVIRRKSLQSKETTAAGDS

[6] = target: MCP-3 (UniProt P80098); assay: ELISA, cross-reaction (Table 1)
Sequence of UniProt P80098 (P80098 24-99 limits assumed): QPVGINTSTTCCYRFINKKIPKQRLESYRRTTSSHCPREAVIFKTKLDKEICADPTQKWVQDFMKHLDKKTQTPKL

[7] = target: T1, M-CSF (UniProt P09603); assay: ELISA, cross-reaction (Table 1)
T1 sequence (looked up): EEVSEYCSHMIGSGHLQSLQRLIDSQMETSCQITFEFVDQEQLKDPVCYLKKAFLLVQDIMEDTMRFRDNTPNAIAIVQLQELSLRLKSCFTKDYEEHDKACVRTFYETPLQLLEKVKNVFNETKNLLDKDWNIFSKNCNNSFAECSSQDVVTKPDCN

[8] = target: b-FGF (UniProt P09038); assay: ELISA, cross-reaction (Table 1)
Sequence of UniProt P09038 (P09038 143-288 limits assumed): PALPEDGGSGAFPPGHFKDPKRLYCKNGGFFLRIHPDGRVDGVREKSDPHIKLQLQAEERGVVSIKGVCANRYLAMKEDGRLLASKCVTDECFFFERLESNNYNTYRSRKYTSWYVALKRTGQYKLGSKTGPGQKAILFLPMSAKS

[9] = target: HSA (UniProt P02768); assay: ELISA, cross-reaction (Table 1)
Sequence of UniProt P02768 (P02768 25-609): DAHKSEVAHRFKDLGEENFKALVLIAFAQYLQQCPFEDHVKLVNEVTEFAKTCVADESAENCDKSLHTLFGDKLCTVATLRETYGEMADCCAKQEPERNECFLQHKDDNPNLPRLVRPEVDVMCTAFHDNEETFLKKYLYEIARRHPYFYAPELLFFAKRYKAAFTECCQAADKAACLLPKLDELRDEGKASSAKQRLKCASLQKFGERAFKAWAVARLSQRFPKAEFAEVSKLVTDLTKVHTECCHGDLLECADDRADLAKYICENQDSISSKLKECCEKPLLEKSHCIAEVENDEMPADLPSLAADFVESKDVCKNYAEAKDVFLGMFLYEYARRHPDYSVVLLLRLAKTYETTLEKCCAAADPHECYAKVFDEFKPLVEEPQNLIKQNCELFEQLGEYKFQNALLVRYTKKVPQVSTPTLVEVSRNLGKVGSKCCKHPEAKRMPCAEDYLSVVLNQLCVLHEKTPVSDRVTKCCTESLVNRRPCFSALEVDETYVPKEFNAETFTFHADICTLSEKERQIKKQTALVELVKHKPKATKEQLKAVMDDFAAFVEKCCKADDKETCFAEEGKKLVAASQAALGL

[10] = target: EGF (UniProt P01133); assay: ELISA, cross-reaction (Table 1)
Sequence of UniProt P01133 (P01133 971-1023 limits assumed): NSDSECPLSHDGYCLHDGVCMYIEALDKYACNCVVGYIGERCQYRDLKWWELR

[11] = target: BSA (UniProt P02769); assay: ELISA, cross-reaction (Table 1)
Sequence of UniProt P02769 (P02769 25-607 limits assumed): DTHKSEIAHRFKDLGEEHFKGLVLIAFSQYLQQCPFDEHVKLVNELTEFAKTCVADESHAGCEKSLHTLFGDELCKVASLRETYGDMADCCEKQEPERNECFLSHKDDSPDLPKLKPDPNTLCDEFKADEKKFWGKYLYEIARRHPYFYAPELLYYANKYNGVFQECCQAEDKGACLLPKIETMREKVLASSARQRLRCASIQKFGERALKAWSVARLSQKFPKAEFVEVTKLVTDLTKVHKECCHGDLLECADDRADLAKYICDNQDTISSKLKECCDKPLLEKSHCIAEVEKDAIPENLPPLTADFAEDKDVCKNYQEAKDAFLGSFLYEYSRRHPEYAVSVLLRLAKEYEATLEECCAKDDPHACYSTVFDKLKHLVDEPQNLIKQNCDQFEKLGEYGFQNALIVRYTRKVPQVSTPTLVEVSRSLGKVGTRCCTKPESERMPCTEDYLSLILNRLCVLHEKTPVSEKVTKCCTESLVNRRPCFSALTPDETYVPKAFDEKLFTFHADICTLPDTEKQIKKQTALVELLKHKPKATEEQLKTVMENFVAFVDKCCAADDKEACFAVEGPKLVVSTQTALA

[12] = target: GM-CSF (UniProt P04141); assay: ELISA, cross-reaction (Table 1)
Sequence of UniProt P04141 (P04141 18-144 limits assumed): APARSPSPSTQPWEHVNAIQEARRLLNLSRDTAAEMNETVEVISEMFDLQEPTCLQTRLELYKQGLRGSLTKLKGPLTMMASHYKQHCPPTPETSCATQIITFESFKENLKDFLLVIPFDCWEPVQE

[13] = target: TNF-α (UniProt P01375); assay: ELISA, cross-reaction (Table 1)
Sequence of UniProt P01375 (P01375 77-233 limits assumed): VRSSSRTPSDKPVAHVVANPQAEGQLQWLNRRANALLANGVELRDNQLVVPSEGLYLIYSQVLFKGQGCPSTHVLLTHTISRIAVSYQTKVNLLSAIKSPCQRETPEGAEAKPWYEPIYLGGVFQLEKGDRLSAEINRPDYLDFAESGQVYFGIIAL

[14] = target: IL-1β (UniProt P01584); assay: ELISA, cross-reaction (Table 1)
Sequence of UniProt P01584 (P01584 117-269 limits assumed): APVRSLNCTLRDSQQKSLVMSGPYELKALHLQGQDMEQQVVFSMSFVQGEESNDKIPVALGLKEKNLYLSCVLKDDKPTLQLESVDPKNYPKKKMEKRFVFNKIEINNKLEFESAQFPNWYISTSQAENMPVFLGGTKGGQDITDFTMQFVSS

[15] = target: MCAF (UniProt P13500); assay: ELISA, cross-reaction (Table 1)
Sequence of UniProt P13500 (P13500 24-99 limits assumed): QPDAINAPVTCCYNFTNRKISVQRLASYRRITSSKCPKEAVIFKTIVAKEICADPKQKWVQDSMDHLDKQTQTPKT

[16] = target: T2, IL-7 (UniProt P13232); assay: ELISA, cross-reaction (Table 1)
T2 sequence (looked up): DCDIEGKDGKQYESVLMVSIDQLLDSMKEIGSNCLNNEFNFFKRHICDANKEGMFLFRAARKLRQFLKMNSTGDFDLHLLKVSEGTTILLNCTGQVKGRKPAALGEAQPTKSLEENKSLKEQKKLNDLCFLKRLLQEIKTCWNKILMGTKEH

[17] = target: 白细胞介素-8(IL-8), E.Coli表达的基因重组人体单核细胞来源的IL-8, 72个氨基酸 (human) (UniProt P10145); assay: cell-based or functional assay
[18] = target: 白细胞介素-8(IL-8), E.Coli表达的基因重组人体单核细胞来源的IL-8, 72个氨基酸 (human) (UniProt P10145); assay: ELISA, plate coated with 1ug/ml IL-8, antibody 15 ng/ml, replicate 1
[19] = target: 白细胞介素-8(IL-8), E.Coli表达的基因重组人体单核细胞来源的IL-8, 72个氨基酸 (human) (UniProt P10145); assay: ELISA, plate coated with 1ug/ml IL-8, antibody 15 ng/ml, replicate 2
[20] = target: 白细胞介素-8(IL-8), E.Coli表达的基因重组人体单核细胞来源的IL-8, 72个氨基酸 (human) (UniProt P10145); assay: ELISA, cross-reaction with IL-8 homologues (Table 2)
[21] = target: T3, ENA78 (UniProt P42830); assay: as above
T3 sequence (looked up): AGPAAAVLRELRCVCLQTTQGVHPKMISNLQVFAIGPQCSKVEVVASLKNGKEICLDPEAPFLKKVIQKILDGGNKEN

[22] = target: T4, PF-4 (UniProt P02776); assay: as above
T4 sequence (looked up): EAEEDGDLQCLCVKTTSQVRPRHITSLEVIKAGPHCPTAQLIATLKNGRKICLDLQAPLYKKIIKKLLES

[23] = target: GROα (UniProt P09341); assay: as above
Sequence of UniProt P09341 (P09341 35-107 limits assumed): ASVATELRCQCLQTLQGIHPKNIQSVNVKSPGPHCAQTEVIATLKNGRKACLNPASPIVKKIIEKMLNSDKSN

[24] = target: GCP2 (UniProt P80162); assay: as above
Sequence of UniProt P80162 (P80162 38-114 limits assumed): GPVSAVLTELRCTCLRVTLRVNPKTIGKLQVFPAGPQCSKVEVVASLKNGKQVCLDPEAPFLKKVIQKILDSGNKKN

[25] = target: T5, NAP-2 (UniProt P02775); assay: as above
T5 sequence (looked up): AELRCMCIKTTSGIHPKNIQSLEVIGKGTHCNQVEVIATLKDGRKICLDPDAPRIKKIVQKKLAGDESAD

[26] = target: 白细胞介素-8(IL-8), E.Coli表达的基因重组人体单核细胞来源的IL-8, 72个氨基酸 (human) (UniProt P10145); assay: ELISA, plate coated with 1ug/ml IL-8, antibody 30 ng/ml, mean
[27] = target: 白细胞介素-8(IL-8), E.Coli表达的基因重组人体单核细胞来源的IL-8, 72个氨基酸 (human) (UniProt P10145); assay: ELISA, plate coated with 1ug/ml IL-8, antibody 3 ng/ml, replicate 1
[28] = target: 白细胞介素-8(IL-8), E.Coli表达的基因重组人体单核细胞来源的IL-8, 72个氨基酸 (human) (UniProt P10145); assay: ELISA, plate coated with 1ug/ml IL-8, antibody 15 ng/ml, mean
[29] = target: 白细胞介素-8(IL-8), E.Coli表达的基因重组人体单核细胞来源的IL-8, 72个氨基酸 (human) (UniProt P10145); assay: ELISA, plate coated with 1ug/ml IL-8, antibody 30 ng/ml, replicate 2
[30] = target: 白细胞介素-8(IL-8), E.Coli表达的基因重组人体单核细胞来源的IL-8, 72个氨基酸 (human) (UniProt P10145); assay: ELISA, plate coated with 1ug/ml IL-8, antibody 3 ng/ml, mean

Sequence of UniProt P10145 (P10145 21-99): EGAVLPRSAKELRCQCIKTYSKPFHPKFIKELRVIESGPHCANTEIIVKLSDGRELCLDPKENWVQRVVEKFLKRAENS

B1: 抗IL-8单克隆抗体 克隆6E6(又称I8-60) (antibody, part only; not given: light variable and mouse constant regions, IgG1, V domains shown, part only)
VH: QVKLQQSGGGLVQPGGSLKFSCAASGFDFSRYWMSWVRQAPGKGLEWIGEINPDSTTINYTPSLKDKFIISRDNAKNTLYLQMSKVRSEDTALYYCARLDGYYGYFDYWGQGTTVTVSS
B1 showed an OD 450 [1] of 0.377 OD450, an OD 450 [2] of 1.09 OD450 and an O.D.值 [3] of 0.021 OD. For the same binder, the O.D.值 [4] was over 2 OD, the O.D.值 [5] was 0.044 OD and the O.D.值 [6] was 0.024 OD. It also gave an O.D.值 [7] of 0.044 OD, an O.D.值 [8] of 0.027 OD and an O.D.值 [9] of 0.129 OD. It also gave an O.D.值 [10] of 0.044 OD, an O.D.值 [11] of 0.147 OD and an O.D.值 [12] of 0.037 OD. The O.D.值 [13] was 0.039 OD, the O.D.值 [14] was 0.029 OD and the O.D.值 [15] was 0.023 OD. It also gave an O.D.值 [16] of 0.06 OD, a 化学趋向抑制率 (antibody 0.05μg/mL, IL-8 10ng/ml, Ab∶Ag 5∶1) [17] of 17.1% and a 化学趋向抑制率 (antibody 0.5μg/mL, IL-8 10ng/ml, Ab∶Ag 50∶1) [17] of 83.9%. It also gave a 化学趋向抑制率 (antibody 5μg/mL, IL-8 10ng/ml, Ab∶Ag 500∶1) [17] of 99.8%, a 化学趋向抑制率 (antibody 50μg/mL, IL-8 10ng/ml, Ab∶Ag 5000∶1) [17] of 118% and a 抑制率(%) (IL-8 20 ng/ml, antibody 0.1 ug/ml) [17] of 48.9%. It also gave a 抑制率(%) (IL-8 20 ng/ml, antibody 1 ug/ml) [17] of 81.1%, a 抑制率(%) (IL-8 20 ng/ml, antibody 10 ug/ml) [17] of 91.1% and a 趋化指数 (IL-8 20 ng/ml, antibody 0.1 ug/ml) [17] of 2.24. The 趋化指数 (IL-8 20 ng/ml, antibody 1 ug/ml) [17] was 1.46, the 趋化指数 (IL-8 20 ng/ml, antibody 10 ug/ml) [17] was 1.22 and the OD 450 [18] was 0.626 OD450. The OD 450 [19] was 0.708 OD450, the O.D.值 [20] was over 2 OD and the O.D.值 [21] was 0.073 OD. For the same binder, the O.D.值 [22] was 0.113 OD, the O.D.值 [23] was 0.097 OD and the O.D.值 [24] was 0.088 OD. For the same binder, the O.D.值 [25] was 0.031 OD, the OD 450 平均值 [26] was 1.18 OD450 and the OD 450 [27] was 0.352 OD450. The OD 450 平均值 [28] was 0.667 OD450, the OD 450 [29] was 1.27 OD450 and the OD 450 平均值 [30] was 0.365 OD450.

B2: 抗IL-8嵌合型抗体 (Chimeric anti-IL8 Ab) (antibody, part only; not given: light variable and human constant regions, not shown: a dimerising Fc or GST)
heavy: B1 VH
B2 showed an OD 450 [1] of 0.398 OD450, an OD 450 [2] of 1.9 OD450 and a 抑制率(%) (IL-8 20 ng/ml, antibody 0.1 ug/ml) [17] of 48.2%. It also gave a 抑制率(%) (IL-8 20 ng/ml, antibody 1 ug/ml) [17] of 80.2%, a 抑制率(%) (IL-8 20 ng/ml, antibody 10 ug/ml) [17] of 75.1% and a 趋化指数 (IL-8 20 ng/ml, antibody 0.1 ug/ml) [17] of 2.25. For the same binder, the 趋化指数 (IL-8 20 ng/ml, antibody 1 ug/ml) [17] was 1.48, the 趋化指数 (IL-8 20 ng/ml, antibody 10 ug/ml) [17] was 1.6 and the OD 450 [18] was 1.09 OD450. For the same binder, the OD 450 [19] was 1.14 OD450, the OD 450 平均值 [26] was 1.95 OD450 and the OD 450 [27] was 0.406 OD450. The OD 450 平均值 [28] was 1.12 OD450, the OD 450 [29] was 2 OD450 and the OD 450 平均值 [30] was 0.402 OD450.
